# From patent US20160272948A1
# Tests used:
# [1] = target: 16055 NFL TD8 CC trimer (HIV-1 strain 16055 (subtype C)); assay: BLI; IgG immobilized on a bio-sensor, trimer as analyte in solution, series from 200nM
# [2] = target: 16055 NFL TD8 trimer (HIV-1 strain 16055 (subtype C)); assay: BLI (Octet), series from 200nM, 1:1 global fit; paragraph 228: IgG on anti-human IgG Fc sensors, trimer as analyte
# [3] = target: JRFL NFL TD15 trimer (HIV-1 strain JRFL (subtype B)); assay: as above
# [4] = target: 16055 NFL TD8 trimer (HIV-1 strain 16055 (subtype C)); assay: ELISA, OD 450 nm; His-tagged trimer captured by anti-His mAb on the plate, antibody titrated
# [5] = target: 16055 NFL TD8 trimer (HIV-1 strain 16055 (subtype C)); assay: BLI; IgG immobilized on a bio-sensor, trimer as analyte in solution, series from 400nM
# JRFL SOSIP TD [6] = assay: as above
# [7] = target: 16055 NFL TD8 CC trimer (HIV-1 strain 16055 (subtype C)); assay: ELISA, OD 450nm; antibody titrated on the captured trimer
# [8] = target: 16055 NFL TD8 trimer (HIV-1 strain 16055 (subtype C)); assay: BLI (Octet), IgG on anti-human Fc sensors, trimer as analyte, global fit 1:1
# [9] = target: 16055 NFL TD8 trimer (HIV-1 strain 16055 (subtype C)); assay: ELISA, OD 450nm; antibody titrated on the captured trimer
# [10] = target: JRFL NFL TD15 trimer (HIV-1 strain JRFL (subtype B)); assay: as above
# [11] = target: BG505 NFL CC trimer (HIV-1 strain BG505 (subtype A)); assay: as above
# [12] = target: 16055 NFL TD CC GL2 trimer with N332 restored; assay: ELISA, OD 450 nm
# Δ276 Δ360 Δ463 [13] = assay: ELISA, OD 450 nm
# Δ276 Δ301 Δ360 Δ463 [14] = assay: ELISA, OD 450 nm
# [15] = target: JRFL NFL TD15 trimer (HIV-1 strain JRFL (subtype B)); assay: ELISA, OD 450 nm; His-tagged trimer captured by anti-His mAb on the plate, antibody titrated
# [16] = target: JRFL NFL TD15 CC trimer (HIV-1 strain JRFL (subtype B)); assay: ELISA, OD 450nm; antibody titrated on the captured trimer
# [17] = target: JRFL NFL TD15 trimer (HIV-1 strain JRFL (subtype B)); assay: BLI (Octet), IgG on anti-human Fc sensors, trimer as analyte, global fit 1:1
# [18] = target: 16055 NFL TD8 trimer (HIV-1 strain 16055 (subtype C)); assay: ELISA, OD 450nm, mAb 5 to 0.00032 ug/mL on the trimer, without sCD4
# [19] = target: 16055 NFL TD8 CC trimer (HIV-1 strain 16055 (subtype C)); assay: as above
# [20] = target: 16055 NFL TD CC GL2 trimer with N332 restored; assay: ELISA, His-captured trimer, OD 450 nm
# Δ276 Δ360 Δ463 [21] = assay: ELISA, His-captured trimer, OD 450 nm
# Δ276 Δ301 Δ360 Δ463 [22] = assay: ELISA, His-captured trimer, OD 450 nm
# [23] = target: 16055 NFL TD CC GL2 trimer with N332 restored; assay: ELISA, trimer on the plate without His-capture (panel 'plate 2G12'), OD 450 nm
# Δ276 Δ360 Δ463 [24] = assay: as above
# Δ276 Δ301 Δ360 Δ463 [25] = assay: as above
# 16055 NFL TD GL L568G = assay: ELISA, OD 450nm, mAb 5 to 0.00032 ug/mL on the trimer
# JRFL SOSIP TD [26] = assay: BLI; VRC03 Fab as analyte in solution (series from 400nM), trimer immobilized on the sensor
# [27] = target: 16055 NFL TD8 trimer (HIV-1 strain 16055 (subtype C)); assay: BLI; VRC03 Fab as analyte in solution (series from 6400nM), trimer immobilized on the sensor
# [28] = target: 16055 NFL TD8 CC trimer (HIV-1 strain 16055 (subtype C)); assay: as above
substance,measurement,setting,value
PGDM1400 (antibody),Kd,[1],0.0217 µM
same,koff,[2],0.0015 s⁻¹
same,kon,[2],73000 M⁻¹ s⁻¹
same,Kd,[3],0.036 µM
same,koff,[3],0.0011 s⁻¹
same,kon,[3],31000 M⁻¹ s⁻¹
same,EC50 (read off the curve),[4],0.06 µg/mL
same,Kd,[5],0.0215 µM
same,Kd,JRFL SOSIP TD [6],2.84 µM
same,EC50 (read off the curve),[7],0.1 µg/mL
same,Kd,[8],0.021 µM
PGT121 (antibody),EC50 (read off the curve),[9],0.07 µg/mL
same,EC50 (read off the curve),[10],0.2 µg/mL
VRC01 (antibody),EC50 (read off the curve),[11],0.2 µg/mL
same,EC50 (read off the curve),[12],0.1 µg/mL
same,EC50 (read off the curve),Δ276 Δ360 Δ463 [13],0.03 µg/mL
same,EC50 (read off the curve),Δ276 Δ301 Δ360 Δ463 [14],0.03 µg/mL
VRC05 (antibody),EC50 (read off the curve),[12],0.1 µg/mL
PGT145 (antibody),Kd,[1],0.0332 µM
same,Kd,[2],0.04 µM
same,koff,[2],0.0044 s⁻¹
same,kon,[2],110000 M⁻¹ s⁻¹
same,koff,[3],0.00067 s⁻¹
same,kon,[3],120000 M⁻¹ s⁻¹
same,EC50 (read off the curve),[4],0.1 µg/mL
same,EC50 (read off the curve),[15],0.2 µg/mL
same,Kd,[5],0.0403 µM
same,Kd,JRFL SOSIP TD [6],0.00437 µM
same,EC50 (read off the curve),[16],0.04 µg/mL
same,EC50 (read off the curve),[7],0.04 µg/mL
same,Kd,[17],0.005 µM
same,EC50 (read off the curve),[12],0.02 µg/mL
same,EC50 (read off the curve),Δ276 Δ360 Δ463 [13],0.01 µg/mL
same,EC50 (read off the curve),Δ276 Δ301 Δ360 Δ463 [14],0.01 µg/mL
same,EC50 (read off the curve),[18],0.07 µg/mL
same,EC50 (read off the curve),[19],0.07 µg/mL
2G12 (antibody),EC50 (read off the curve),[20],0.1 µg/mL
same,EC50 (read off the curve),Δ276 Δ360 Δ463 [21],0.1 µg/mL
same,EC50 (read off the curve),Δ276 Δ301 Δ360 Δ463 [22],0.1 µg/mL
same,EC50 (read off the curve),[23],0.04 µg/mL
same,EC50 (read off the curve),Δ276 Δ360 Δ463 [24],0.04 µg/mL
same,EC50 (read off the curve),Δ276 Δ301 Δ360 Δ463 [25],0.04 µg/mL
8ANC131 (antibody),EC50 (read off the curve),[12],0.1 µg/mL
same,EC50 (read off the curve),Δ276 Δ360 Δ463 [13],0.03 µg/mL
same,EC50 (read off the curve),Δ276 Δ301 Δ360 Δ463 [14],0.03 µg/mL
PG16 (antibody),Kd,[1],0.0267 µM
same,Kd,[2],0.029 µM
same,koff,[2],0.0017 s⁻¹
same,kon,[2],58000 M⁻¹ s⁻¹
same,Kd,[3],0.041 µM
same,koff,[3],0.0032 s⁻¹
same,kon,[3],77000 M⁻¹ s⁻¹
same,EC50 (read off the curve),[4],0.09 µg/mL
same,EC50 (read off the curve),[15],0.03 µg/mL
same,EC50 (read off the curve),16055 NFL TD GL L568G,0.07 µg/mL
same,Kd,[5],0.0296 µM
same,Kd,JRFL SOSIP TD [6],0.0424 µM
VRC06b (antibody),EC50 (read off the curve),[15],0.08 µg/mL
same,EC50 (read off the curve),[16],0.2 µg/mL
same,EC50 (read off the curve),[12],0.1 µg/mL
same,EC50 (read off the curve),Δ276 Δ360 Δ463 [13],0.03 µg/mL
same,EC50 (read off the curve),Δ276 Δ301 Δ360 Δ463 [14],0.03 µg/mL
HJ16 (antibody),EC50 (read off the curve),[12],0.02 µg/mL
8ANC134 (antibody),EC50 (read off the curve),[12],0.1 µg/mL
same,EC50 (read off the curve),Δ276 Δ360 Δ463 [13],0.03 µg/mL
same,EC50 (read off the curve),Δ276 Δ301 Δ360 Δ463 [14],0.03 µg/mL
VRC03 Fab,Kd,JRFL SOSIP TD [26],0.0133 µM
same,Kd,[27],0.168 µM
same,Kd,[28],0.606 µM
VRC13 (antibody),EC50 (read off the curve),[12],0.1 µg/mL
CD4-Ig2 (Fc fusion),EC50 (read off the curve),[12],0.04 µg/mL
same,EC50 (read off the curve),Δ276 Δ360 Δ463 [13],0.04 µg/mL
same,EC50 (read off the curve),Δ276 Δ301 Δ360 Δ463 [14],0.04 µg/mL
VRC16 (antibody),EC50 (read off the curve),[12],0.05 µg/mL
same,EC50 (read off the curve),Δ276 Δ360 Δ463 [13],0.03 µg/mL
same,EC50 (read off the curve),Δ276 Δ301 Δ360 Δ463 [14],0.03 µg/mL
PGT128 (antibody),EC50 (read off the curve),[9],0.05 µg/mL
same,EC50 (read off the curve),[10],0.05 µg/mL
VRC18b (antibody),EC50 (read off the curve),Δ276 Δ360 Δ463 [13],0.04 µg/mL
same,EC50 (read off the curve),Δ276 Δ301 Δ360 Δ463 [14],0.04 µg/mL
VRC03 (antibody),EC50 (read off the curve),[15],0.2 µg/mL
same,EC50 (read off the curve),[16],0.2 µg/mL
same,EC50 (read off the curve),Δ276 Δ360 Δ463 [13],0.04 µg/mL
same,EC50 (read off the curve),Δ276 Δ301 Δ360 Δ463 [14],0.04 µg/mL
